Test results taken from patent US20140271635A1 (Novartis, published 2014).
Numbering of substitutions follows the chain as printed.

T1: full length human CD19 expressed on mouse preB cell line 300.19 (300.19-hsCD19FL) (human, UniProt P15391 20-556)
T1 construct: whole, on cells; also called hCD19; 300.CD19
T1 sequence (looked up): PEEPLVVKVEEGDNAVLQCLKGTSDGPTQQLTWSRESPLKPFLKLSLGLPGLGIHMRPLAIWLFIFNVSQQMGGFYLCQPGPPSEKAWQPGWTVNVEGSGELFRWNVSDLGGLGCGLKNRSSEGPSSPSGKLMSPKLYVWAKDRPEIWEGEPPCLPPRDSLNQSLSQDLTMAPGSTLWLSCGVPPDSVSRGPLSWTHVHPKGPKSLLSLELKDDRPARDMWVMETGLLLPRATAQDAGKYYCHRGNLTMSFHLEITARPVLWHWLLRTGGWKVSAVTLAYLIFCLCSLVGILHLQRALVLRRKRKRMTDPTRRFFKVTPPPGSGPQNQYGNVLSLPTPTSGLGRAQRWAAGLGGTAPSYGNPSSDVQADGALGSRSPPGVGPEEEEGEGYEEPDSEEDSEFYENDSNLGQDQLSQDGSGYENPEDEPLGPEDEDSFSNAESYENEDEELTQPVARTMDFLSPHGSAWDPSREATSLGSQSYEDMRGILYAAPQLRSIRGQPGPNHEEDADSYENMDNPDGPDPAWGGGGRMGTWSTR

B1: 99789 CAR5 - Soluble scFv (scFv)
scFv: EIVMTQSPATLSLSPGERATLSCRASQDISKYLNWYQQKPGQAPRLLIYHTSRLHSGIPARFSGSGSGTDYTLTISSLQPEDFAVYFCQQGNTLPYTFGQGTKLEIKGGGGSGGGGSGGGGSGGGGSQVQLQESGPGLVKPSETLSLTCTVSGVSLPDYGVSWIRQPPGKGLEWIGVIWGSETTYYSSSLKSRVTISKDNSKNQVSLKLSSVTAADTAVYYCAKHYYYGGSYAMDYWGQGTLVTVSSHHHHHHHH
notes: Built here without the leader
B2: 99790 CAR6 - Soluble scFv (scFv)
scFv: B1 scFv with S187Q
notes: Built here without the leader
B3: 103104 CAR 3 - Soluble scFv (scFv)
scFv: QVQLQESGPGLVKPSETLSLTCTVSGVSLPDYGVSWIRQPPGKGLEWIGVIWGSETTYYSSSLKSRVTISKDNSKNQVSLKLSSVTAADTAVYYCAKHYYYGGSYAMDYWGQGTLVTVSSGGGGSGGGGSGGGGSEIVMTQSPATLSLSPGERATLSCRASQDISKYLNWYQQKPGQAPRLLIYHTSRLHSGIPARFSGSGSGTDYTLTISSLQPEDFAVYFCQQGNTLPYTFGQGTKLEIKHHHHHHHH
notes: Built here without the leader
B4: 103106 CAR4 - Soluble scFv (scFv)
scFv: B3 scFv with S60Q
notes: Built here without the leader
B5: 103101 CAR1 Soluble scFv (scFv)
scFv: EIVMTQSPATLSLSPGERATLSCRASQDISKYLNWYQQKPGQAPRLLIYHTSRLHSGIPARFSGSGSGTDYTLTISSLQPEDFAVYFCQQGNTLPYTFGQGTKLEIKGGGGSGGGGSGGGGSQVQLQESGPGLVKPSETLSLTCTVSGVSLPDYGVSWIRQPPGKGLEWIGVIWGSETTYYSSSLKSRVTISKDNSKNQVSLKLSSVTAADTAVYYCAKHYYYGGSYAMDYWGQGTLVTVSSHHHHHHHH
notes: Built here without the leader
B6: 103102 CAR2 - Soluble scFv (scFv)
scFv: B5 scFv with S182Q
notes: Built here without the leader
B7: 100796 CAR7 - Soluble scFv (scFv)
scFv: QVQLQESGPGLVKPSETLSLTCTVSGVSLPDYGVSWIRQPPGKGLEWIGVIWGSETTYYSSSLKSRVTISKDNSKNQVSLKLSSVTAADTAVYYCAKHYYYGGSYAMDYWGQGTLVTVSSGGGGSGGGGSGGGGSGGGGSEIVMTQSPATLSLSPGERATLSCRASQDISKYLNWYQQKPGQAPRLLIYHTSRLHSGIPARFSGSGSGTDYTLTISSLQPEDFAVYFCQQGNTLPYTFGQGTKLEIKHHHHHHHH
notes: Built here without the leader
B8: 100798 CAR8 - Soluble scFv (scFv)
scFv: B7 scFv with S60Q
notes: Built here without the leader

target: T1, full length human CD19 expressed on …; assay: flow cytometry on mouse 300.19 cells expressing hCD19, His-tagged scFv
Description: Mouse cell line 300.CD19 were grown in RPMI 1640 with 0.5 mg/ml Zeocin. Around 5e5 cells/per well were transferred to the BD Falcon 96 well plate. The cells were spin down at 900 rpm (Sorval Legend XT centrifuge) for 3 minutes. The supernatant were removed. Anti-CD19 scFv protein samples were diluted in DPBS with 5% FBS. The samples were added into the wells, mixed well with the cells and incubated for 1 hour. The cells were washed twice in the DPBS with 5% FBS. The cells were incubated with antipoly His PE (R&D) for 1 hour, washed twice before FACS analysis (LSRII from BD Biosciences).

Binding result, binds:
B1
B2
B3
B4
B5
B6
B7
B8
